Patent US10053696B2, “MiRNA-489 in treatment of breast cancer” (University of South Carolina, priority 2016, dated 2018)

Tests used:
[1] = tested on: HER2, AKT and MAPK phosphorylation in MCF7 vect and MCF7 HER2 cells; assay: Western blot of HER2 signaling after lapatinib treatment; type: cell-based; conditions: 2 μM lapatinib, 48 h, Western blot (FIG. 3)
Experimental: (§1) Quantitative real-time RT-PCR analysis, Immunohistochemistry staining (IHC), Western Blot analysis, Fluorescence-Activated Cell Sorting (FACS) assay, Luciferase assay and Xenograft experiments were performed using standard protocol.
(§2) To identify specific miRNAs that may be involved in promotion of breast cancer progression, expression profiles of several (˜200) miRNA were screened and compared for HER2 over-expressing and control MCF7 cells using quantitative RT-PCR (qRT-PCR) analysis.

[2] = tested on: miR-489, miR-125b and miR-99a expression in MCF7 HER2 cells; assay: qRT-PCR of HER2-regulated miRNAs after lapatinib treatment; type: cell-based; conditions: lapatinib treated MCF7 HER2 cells, qRT-PCR (FIG. 4)
Experimental: All data are representative of three independent experiments.
as §1, §2

3′UTR of HER2 = assay: Dual luciferase assay with HER2 3′UTR reporter constructs; type: cell-based, human; conditions: MCF7 HER2 cells, co-transfected 48 h, normalized with renilla (FIG. 16)
Experimental: FIG. 16 presents a schematic representation of the HER2 mRNA (wild type (wt) and mutant (mut)) with putative miR-489 binding site in the 3′ UTR, where the seed region is highlighted. MCF7 HER2 cells were co-transfected with either of miR-489 expressing vector or empty vector and renilla expressing vector for 48 h. Firefly luciferase was measured for each condition and normalized with renilla luciferase. Normalized luciferase activity was compared with WT-3′UTR and Mutant 3′ UTR of HER2 (graph).
A 650 bp long 3′ UTR of human HER2 was amplified from genomic DNA and cloned into the pGL3-promoter vector at the same Xba I and BamH I sites. For the mutation analysis putative miR-489 target site within 3′UTR of HER2 was mutated by Phusion site directed mutagenesis kit (Thermofisher Cat# F-541). All sequences were verified by direct sequencing of the plasmids.
as §1
To examine the similar effect of mimic-489 treatment on the expression of HER2, other breast cancer cell lines, AU-565, BT-474, HCC-1954 and ZR-75-1 cells were treated with mimic-489 for 72 hours to isolate total protein and RNA. […]

SHP2 = SHP2 expression in breast cancer cell lines after miR-489 overexpression; type: cell-based; conditions: mRNA and protein levels

| Molecule | HER2, AKT and MAPK phosphorylation [1] | expression of miR-489, miR-125b and miR-99a after inhibition of HER2 phosphorylation [2] | luciferase activity of mutant HER2 3′UTR (3′UTR of HER2) | luciferase activity of wt HER2 3′UTR (3′UTR of HER2) | SHP2 expression (SHP2) |
| --- | --- | --- | --- | --- | --- |
| CS(=O)(=O)CCNCc1ccc(-c2ccc3ncnc(Nc4ccc(OCc5cccc(F)c5)c(Cl)c4)c3c2)o1 [lapatinib] | almost complete blockade | at least partially restored the expression profile |  |  |  |
| miR-489: microRNA-489 (SEQ ID NO: 2); overexpressed in cells, e.g. from miR-489 expressing vector in the luciferase assay (nucleic acid, listed as Homo sapiens) GUGGCAGCUUGGUGGUCGUAUGUGUGACGCCAUUUACUUGAACCUUUAGGAGUGACAUCACAUAUACGGCAGCUAAACUGCUAC |  |  | not the mutant HER2 3′UTR is significantly reduced | significantly reduced | reduced SHP2 expression |
